# Test results taken from patent US20170119925.
# System: T1, Gln-Pro-Gln-Gly-Leu-Ala-Lys (QPQGLAK) peptide crosslinker
# T1 sequence: QPQGLAK
substance,measurement,value
general collagenase from Clostridium histolyticum,"kcat/Km (s^-1M^-1), digestion kinetics by HPLC",32 s^-1M^-1
